Assay [1] addresses T1, human retinal guanylyl/guanylate cyclase 1 (RetGC1), wild type (human) (UniProt Q02846).
T1 sequence: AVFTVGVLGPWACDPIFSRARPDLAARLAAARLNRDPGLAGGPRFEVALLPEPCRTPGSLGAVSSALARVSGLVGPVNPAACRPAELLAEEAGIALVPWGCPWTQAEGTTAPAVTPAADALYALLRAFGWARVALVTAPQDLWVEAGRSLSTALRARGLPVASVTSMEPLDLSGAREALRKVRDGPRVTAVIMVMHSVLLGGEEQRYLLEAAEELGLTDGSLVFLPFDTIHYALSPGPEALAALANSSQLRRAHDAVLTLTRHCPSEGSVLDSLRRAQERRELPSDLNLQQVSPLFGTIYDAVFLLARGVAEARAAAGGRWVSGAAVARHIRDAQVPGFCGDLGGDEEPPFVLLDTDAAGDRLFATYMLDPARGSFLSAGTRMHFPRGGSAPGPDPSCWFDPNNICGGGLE

In assay [2] the target is human RetGC1 p.(Leu587Val) (human) (UniProt Q02846).
Assay [3] deals with human RetGC1 p.(Arg624Gln) (human) (UniProt Q02846).
The target of assay [4] is human RetGC1 p.(Tyr555Ser) (human) (UniProt Q02846).

B1: Human GCAP1 (Ser6) (natural protein)
chain: MGNVMSGKSVEELSSTECHQWYKKFMTECPSGQLTLYEFRQFFGLKNLSPSASQYVEQMFETFDFNKDGYIDFMEYVAALSLVLKGKVEQKLRWYFKLYDVDGNGCIDRDELLTIIQAIRAINPCSDTTMTAEEFTDTVFSKIDVNGDGELSLEEFIEGVQKDQMLLDTLTRSLDLTRIVRRLQNGEQDEEGADEAAEAAG
Consider B1, for which the [GCAP]1/2: GCAP1 concentration producing half-maximal stimulation of guanylyl cyclase activity (HEK293 membranes, 10 mM MgCl2, 2 mM EGTA) in assay [1] was 0.98 µM; in assay [2], 2.4 µM; in assay [3], 4.1 µM; in assay [4] it was 4.4 µM.

For the origin of these results see article PMC12155690.
